Data on twelve molecules can be found in patent publication US20020032166A1, “Biocompatible cationic detergents and uses therefor” (University Technology Corporation, priority 1992, published 2002).

By IC50 is commonly meant the concentration that gives 50% inhibition.

Series [1] is described as follows: Apparent water/1-octanol partition coefficient of SDS hydrophobic ion pair complexes.
Text: The relative solubilities in two phases is given in terms of an apparent partition coefficient. The apparent partition coefficient is defined as the ratio of the equilibrium concentration in an organic phase to that in an aqueous phase. The actual value of the apparent partition coefficient, P, is dependent on the two solvent systems employed. In all cases herein described, the organic phase is 1-octanol and the aqueous phase is water alone or with a minimal amount of HCl added.
(§3) Apparent partition coefficients were measured by dissolving a peptide in 1.25 ml of an aqueous solution. Before SDS addition, the pH was measured on a Beckman pH meter. Upon addition of an SDS solution, the solutions turned cloudy and a precipitate formed immediately. An equal volume of 1-octanol was added and the mixtures agitated, and then left undisturbed for several hours. Prior to analysis, the tubes were spun for 10 minutes at 4000 g. Each layer was removed and the absorbance measured on a Beckman DU-64 UV-visible spectrophotometer using 1 cm quartz cells. All apparent partition coefficients were corrected for changes in pH with differing SDS concentrations.
Results are described as logarithms of the apparent partition coefficient. A log P value of 0 means that the compound is equally soluble in water and the organic phase.
The test system of the next series is CCRF-CEM cells. The series is described as follows: Cytotoxicity, MTS cell proliferation assay. In kind it is cell-based, human. The following applies: for IC50: Homo sapiens, 2-6 h exposure, 72 h growth, read-out: IC50 (half-maximal growth inhibition). From the text: (§1) The cytotoxicity of arginine dodecyl ester was investigated in cell culture with two types of cells (see Cory et al., Cancer Commun., 3, 207-212 (1991)): CCRF-CEM cells, a human T-cell leukemia cell line that grows in suspension (obtained from the American Type Culture Collection, ATCC); and a green monkey kidney cell line (COS-7) that grows in monolayers (also obtained from ATCC). For comparison, the cells were also exposed to […] bromide (DTAB) (Sigma).
(§2) Cells were plated into 96-well plates (Corning) in a total of 200 μL Dulbecco's modified minimal essential medium for COS-7 cells, RPMI 1640 for CEM cells, supplemented with penicillin G (50 U/ml), streptomycin sulfate (50 μg/ml), and 10% fetal calf serum, at 10,000 cells/well for COS-7 amd 50,000 cells/well for CEM cells. The plates were incubated at 37° C. for 24 hours after plating. The cells were then exposed to various concentrations of the detergents. Each detergent concentration was used in 8 replicate wells. After 2-6 hours, media/detergent solutions were aspirated, and the wells were washed twice with PBS. For CEM suspension cells, centrifugation of the suspension at 1000×g for 5 min between each wash was required. After washing, 200 μL of fresh medium were added, and the cells were incubated for 72 hours. After 72 hours, cell proliferation was determined using the Promega CellTiter 96 AQueous Non-Radioactive Cell Proliferation Assay.
(Formazan colour is commonly taken as a measure of viable cells.)

For series [2], the system named is COS-7 cells. The series is described as follows: Cytotoxicity, MTS cell proliferation assay. In kind it is cell-based, green monkey. The following applies: for IC50: Chlorocebus sabaeus, 2-6 h exposure, 72 h growth, read-out: IC50 (half-maximal growth inhibition).
Text: as §1, §2
CC-CHOL was tested for cytotoxicity as described in Example 38 using COS-7 and JEG-3 cells. JEG-3 cells are a human choriocarcinoma cell line available from ATCC. The culture medium was Eagle's minimum essential medium containing 10% serum.

Series [3] can be described thus: Partitioning of anionic compounds with arginine esters. The class given is physicochemical. The procedure: Stock solutions of the arginine esters were made by first dissolving the powder in 0.1 N HCl to give a 10 mM solution and then raising the pH to a value between 5 and 6. The pH should not be raised above 8.
Anionic compounds were dissolved in pH 5.5 buffer (10 mM bis-tris propane, 10 mM CaCl2, 10 mM KCl). Appropriate amounts of the stock solution of arginine ester (see above), the anionic compound and buffer were mixed so that the final concentration of the anionic material was 1 mg/mL. An equal volume of organic solvent was added, and the samples were vortexed for 15 seconds on high speed. Layers were separated by centrifugation at 4000 rpm for 5 minutes. Concentrations of the anionic material in the aqueous and organic layers were determined by UV spectroscopy on a Beckman DU-64 series spectrophotometer.

Series [4] in a line: Surface tension, critical micelle concentration. The class given is physicochemical. The following applies: in 0.1 N HCl. The procedure: Surface tension was measured using a Fisher surface tensiometer. Briefly, a platinum iridium ring with a diameter of 6 cm was lowered into the appropriate dilution of detergent in 0.1 N HCl. Surface tension was read at the point where the force on the ring upwards caused the ring to break contact with the liquid surface.

Series [5] concerns COS-7 cells. In words: Transfection of pRSV400luc plasmid, luciferase activity. In kind it is cell-based, green monkey. The conditions noted are these: no liposomes or helper lipids. The text has this:
The plasmid used was pRSV400luc. It was obtained from Dr. David Gordon, Div. Endocrinology, University of Colorado School of Medicine, Denver, Colo. It was propagated in Escherichia coli strain DH5a (ATCC), isolated by a standard alkaline-SDS lysis procedure, and purified twice by isopycnic centrifugation on CsCl gradients (Sambrook et al., Molecular Cloning: A Laboratory Manual (Cold Spring Harbor Laboratory) (1989). COS-7 cells at approximately 50,000 cells per 60 mm diameter plate (Falcon) were used for transfection. Control experiments were done with Lipofectamine (GIBCO/Life Technologies, Gaithersburg, Md.).
In 200 total μL of serum-free medium, plasmid (20 μg) and Lipofectamine or arginine dodecyl ester were mixed and allowed to interact for 45 minutes. The volume was then brought to 1 mL with serum-free medium. Plates with cells were washed with serum-free medium. […]
After allowing cells to grow and express gene product for 36-50 hours, the cells were harvested. […] Intensity of luminescence should be proportional to the amount of expressed luciferase and, therefore, the efficiency of transfection. “Background” is the reading from just the substrate mixture on the luminometer before addition of cell lysate. […] Any reading over 100 units is considered significant.

Series [6] in a line: Solubility of arginine octyl ester powder. In kind it is physicochemical.
The nature of series [7]: Thermal denaturation / melting point followed at 222 nm (CD, absorbance). In kind it is physicochemical. The procedure: Both circular dichroism (CD) signal and light scattering (as measured by changes in absorbance) were measured at 222 nm and the melting point determined by an inflection point in the measured scan.
For series [8] the following is noted: SDS-insulin complex.
Protocol: as §3
For series [9] the following is noted: aqueous solution; cited from earlier work.
Series [10] in a line: Apparent solubility of HIP complexes in organic solvents.

Several values for one entry are separate records, joined by “and”; a condition that tells them apart may be missing. Equal values may be shown once. Read-outs that look alike come from different tables or passages of the source.

As for `NC(=O)CC[C@@H]1NC(=O)[C@H](Cc2ccccc2)NC(=O)[C@H](Cc2ccc(O)cc2)NC(=O)[C@@H](N)CSSC[C@@H](C(=O)N2CCC[C@H]2C(=O)N[C@@H](CCCN=C(N)N)C(=O)NCC(N)=O)NC(=O)[C@H](CC(N)=O)NC1=O` [AVP, 8-Arg-vasopressin], the “increase of apparent partition coefficient on SDS addition” value in series [1] (1-octanol/water, stoichiometric SDS) is “nearly four orders of magnitude”.
In the case of `CCCCCCCCCCCCCC[N+](C)(C)C` [DTAB, tetradecyltrimethylammonium bromide, reference compound], the IC50 in the series on CCRF-CEM cells was 20 µM; in the series with COS-7 cells [2] it was 80 µM.
For the molecule `Nc1ncnc2c1ncn2[C@@H]1O[C@H](COP(=O)(O)OP(=O)(O)OP(=O)(O)O)[C@@H](O)[C@H]1O` [adenosine triphosphate], the log p is -1.48 in [3] (octanol/pH 5.5 buffer, pH 5.5, ester C12, detergent:anionic compound 1:1, solvent octanol, read-out: log p); 0.022 in series [3] (octanol/pH 5.5 buffer, pH 5.5, ester C12, detergent:anionic compound 3:1, solvent octanol, read-out: log p); -3.23 in series [3] (octanol/pH 5.5 buffer, pH 5.5, ester none, solvent octanol, pH 5.5 buffer, read-out: log p).
Take `CCCCCCCCCCCCOC(=O)[C@@H](N)CCCNC(=N)N` [arginine dodecyl ester]: the “critical micelle concentration (cmc)” value in [4] was “approximately 0.3 mM and ~0.10 mg/ml”. Besides, in the series on CCRF-CEM cells, the “toxicity relative to DTAB” value is recorded as “seven-fold less toxicity” and the IC50 came out at 150 µM. In the series on COS-7 cells [2], the “toxicity relative to DTAB” value is listed as “approximately two-fold less toxicity” and the IC50 was 175 µM. For the same molecule, in the series on COS-7 cells [5], the “transfection of plasmid” value is “promoted transection of the plasmid in a concentration and time dependent manner”.
For the molecule `CCCCCCCCOC(=O)[C@@H](N)CCCNC(=N)N` [arginine octyl ester], the “critical micelle concentration (cmc)” value in series [4] is “about 6 mM and ~2.2 mg/ml”. Further, in series [6] (HCl), the “solubility in HCl” value is on record as “would only dissolve in 0.1 N or stronger HCl”. Further, the “solubility in organics” value in series [6] (alcohols, hydrocarbons, aromatics, DMF, pyridine) is listed as “insoluble”. In [6] (water), the “solubility in water” value was “insoluble”.
For the molecule `Cc1ccc(S(=O)(=O)[O-])cc1.[Na+]` [p-toluenesulfonic acid, sodium salt], the log p in series [3] (ester C8 (arginine octyl ester), solvent octanol, pH 5.5 buffer) is on record as -0.353; in [3] (ester C8, solvent isooctane, pH 5.5 buffer), -2.2; in series [3] (ester C12 (arginine dodecyl ester), solvent octanol, pH 5.5 buffer), -0.336; in series [3] (ester none, solvent isooctane, pH 5.5 buffer), -2.7; in series [3] (ester none, solvent octanol, pH 5.5 buffer) it was -1.62.
Gly-Phe: the “partitioning into 1-octanol with SDS” value was “mirrors the marked increase seen for Gly-Phe-NH2” in series [1] (pH 3) and “little enhancement of the partition coefficient” in [1] (pH 7 / neutral pH).
Consider Gly-Phe-NH2, for which the “partitioning into 1-octanol with SDS” value in series [1] (pH 7 / neutral pH) is given as “readily partitions into 1-octanol”.
Turning to “bovine serum albumin: bovine serum albumin, anionic test protein”, the “partitioning into octanol layer” value in series [3] (arginine dodecyl ester added, octanol) is given as “none would partition into octanol layer”.
“hGH: human growth hormone; precipitate with SDS at pH 2”: the “solubility in 1-octanol” value (pH 2) was “not found to be soluble”. The “aqueous solubility on addition of SDS” value (pH 7.8) is “not affected”.
In the case of “insulin-SDS complex: hydrophobic ion pair complex of insulin with sodium dodecyl sulfate”, the “structure after prolonged heating” value in series [7] (1-octanol, 70° C. for more than 1 hour) is listed as “appears to maintain its native structure”. Also, in [7] (SDS:insulin molar ratio 6:1, 200 ug/ml), the “melting point in 1-octanol” value is “about 116 °C”. Also, the “melting point in 1-octanol, CD scan at 222 nm” value in series [7] (SDS:insulin molar ratio 9:1 (FIG. 10)) came to 106 °C. In [7] (SDS:insulin molar ratio 9:1 (FIG. 11)), the “melting point in 1-octanol, absorbance scan at 222 nm” value was determined as 106 °C.
Take “insulin: insulin, a hydrophilic protein; in Table 1 and in 1-octanol present as SDS complex”: the “Tm in 1-octanol above that observed in water” value in series [7] (1-octanol vs water) is “more than 30 degrees”. The “Log P” value is on record as “not detectable” in [8] (organic solvent 1-Chlorooctane); “≧ 1.2” in [8] (organic solvent 1-octanol); “not detectable” in series [8] (organic solvent CCl4); “not detectable” in [8] (organic solvent CH2Cl2); “not detectable” in [8] (organic solvent Dimethoxyethane); “not detectable” in series [8] (organic solvent Ether). The “Log P” value in [8] (organic solvent Hexane) and in series [8] (organic solvent Mineral Oil) was “not detectable” throughout. In series [9], the “Tm of thermal denaturation” value was “about 65 °C”. The “Apparent Sol.” value is “insoluble” in series [10] (SDS-insulin complex in 1-Chlorooctane); “≧ 1.0 mg/ml” in series [10] (SDS-insulin complex in 1-octanol); “insoluble” in series [10] (SDS-insulin complex in CCl4); “insoluble” in series [10] (SDS-insulin complex in CH2Cl2); “≧ 1.0 mg/ml” in series [10] (SDS-insulin complex in DMF); “≧ 1.0 mg/ml” in [10] (SDS-insulin complex in Ethanol). Also, the “Apparent Sol.” value in series [10] (SDS-insulin complex in Ether) is recorded as “insoluble”; in [10] (SDS-insulin complex in Ethyl acetate) it was “insoluble”; in series [10] (SDS-insulin complex in Hexane), “insoluble”; in series [10] (SDS-insulin complex in Methanol), “≧ 1.0 mg/ml”; in series [10] (SDS-insulin complex in Mineral Oil), “insoluble”; in series [10] (SDS-insulin complex in NMP), “≧ 1.0 mg/ml”. Besides, the “Apparent Sol.” value is given as “≧ 0.2 mg/ml” in [10] (SDS-insulin complex in PEG 400); “≧ 0.5 mg/ml” in [10] (SDS-insulin complex in Propylene Glycol); “≧ 0.2 mg/ml” in [10] (SDS-insulin complex in TMP); “≧ 0.5 mg/ml” in series [10] (SDS-insulin complex in Trifluoroethanol); “≧ 0.15 mg/ml” in series [10] (SDS-insulin complex in Trimethyl phosphate); “≧ 1.0 mg/ml” in series [10] (SDS-insulin complex in i-Propanol).
